Publication PMC11005723, “Development of Complementary Photo‐arginine/lysine to Promote Discovery of Arg/Lys hPTMs Interactomes” (Advanced Science, 2024)

Target: His‐DPF2PHD (residues 270–391) (UniProt Q92785)
Test: ITC; 25 °C, MicroCal PEAQ-ITC; protein in the cell titrated with 19 injections of peptide

His‐DPF2PHD (residues 270–391), sequence (Q92785 270-391): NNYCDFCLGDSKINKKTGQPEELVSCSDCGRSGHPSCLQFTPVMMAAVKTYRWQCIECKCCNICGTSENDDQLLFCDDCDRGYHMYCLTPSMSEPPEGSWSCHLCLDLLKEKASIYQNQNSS

- Kd: 3.5 µM
Substance: native H3R2 peptide (H3_(1‐15) without diazirine and biotin)
